In patent US20230331798A1 (JECHO LABORATORIES, published 2023):

Columns and labels:
[1] = target: EPO receptor (Sinobiological, 10707-H08H) (UniProt P19235); assay: SPR, Biacore 8K, 25 C
[2] = target: T1, EPO receptor on TF-1 cells (human, UniProt P19235 25-508); assay: cell-based or functional assay
T1 sequence (looked up): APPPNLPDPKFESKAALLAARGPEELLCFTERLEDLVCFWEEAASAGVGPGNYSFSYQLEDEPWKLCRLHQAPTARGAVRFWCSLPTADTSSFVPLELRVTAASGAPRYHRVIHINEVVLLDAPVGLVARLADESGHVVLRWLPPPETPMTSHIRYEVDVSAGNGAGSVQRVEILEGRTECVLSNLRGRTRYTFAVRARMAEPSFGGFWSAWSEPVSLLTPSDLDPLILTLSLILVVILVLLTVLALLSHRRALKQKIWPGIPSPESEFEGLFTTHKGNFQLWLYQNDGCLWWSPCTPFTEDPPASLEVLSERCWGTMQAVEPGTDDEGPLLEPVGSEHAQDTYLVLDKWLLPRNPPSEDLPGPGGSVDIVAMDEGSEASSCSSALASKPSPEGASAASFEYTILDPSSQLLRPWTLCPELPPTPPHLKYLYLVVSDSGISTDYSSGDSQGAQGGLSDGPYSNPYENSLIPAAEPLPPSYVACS

Kd [1]: 8.35 nM
EC50 (ng/ml), TF-1 cell proliferation (MTS, absorbance at 490 nM) [2]: 11.4 ng/mL
Substance: Darbepoetin (Darbe, lot #1078765A) (ligand)
